Consider 39 variants from the RNAGym collection of RNA variant scans (doi:10.7554/elife.90254).

B1: LINE1-full (parent)
chain: UACGUAGGUGGUUUUCCCCUGAUAGUGCUAAGGGGGCCUGGAAGUUUGGACUGGGCAGAGCUCAACACAGCGUGGCAAAGUGGCUGUGGCUAGACUGCCUCUCUGGAUUCCUCGUCACUCAGCAGGGCAUCUCUGAGAGAAAUGCC

The data set covers variants of B1. Briefly: self-cleavage, relative activity (ratio to wild type); higher = more cleavage; in vitro, sequencing; the parent is a self-cleaving ribozyme.
AACGUAGGUGGUUUUCCCCUGAUAGUGCUAAGGGGGCCUGGAAGUUUGGACUGGGCAGAGCUCAACACAGCGUGGCAAAGUGGCUGUGGCUAGACUGCCUCUCUGAAUUCCUCGUCACUCAGCAGGGCAUCUCUGAGAGAAAUGCC: the self-cleavage came out at 1.44. Under AACGUAGGUGGUUUUCCCCUGAUAGUGCUAAGGGGGCCUGGAAGUUUGGACUGGGCAGAGCUCAACACAGCGUGGCAAAGUGGCUGUGGCUAGACUACCUCUCUGGAUUCCUCGUCACUCAGCAGGGCAUCUCUGAGAGAAAUGCC stands 0.38; under AACGUAGGUGGUUUUCCCCUGAUAGUGCUAAGGGGGCCUAGAAGUUUGGACUGGGCAGAGCUCAACACAGCGUGGCAAAGUGGCUGUGGCUAGACUGCCUCUCUGGAUUCCUCGUCACUCAGCAGGGCAUCUCUGAGAGAAAUGCC, 1.26. For AACGUAGGUGGUUUUCCCCUGACAGUGCUAAGGGGGCCUGGAAGUUUGGACUGGGCAGAGCUCAACACAGCGUGGCAAAGUGGCUGUGGCUAGACUGCCUCUCUGGAUUCCUCGUCACUCAGCAGGGCAUCUCUGAGAGAAAUGCC, the self-cleavage was 2.04. To AACGUAGGUGGUUUUCCCCUGAUAGUGCUAAGGGGGCCUGGAAGUUUGGACUGGGCAGAGCUCAACACAGCGUGGCAAAGUGGCUGUGGCUAGACUGCCUCUCUGGAUUCCUCGUCACUCAGCAGGGCAUCUCUGAGAGAAAUGCC belongs 1.17; to AACGUAGGUGGUUUUCCCCUGAUAGUGCUAAGGGGGCCUGGAAGUUUGGACUGGGCAGAGCUCAACACACCGUGGCAAAGUGGCUGUGGCUAGACUGCCUCUCUGGAUUCCUCGUCACUCAGCAGGGCAUCUCUGAGAGAAAUGCC, 0.43. For AACGUAGGUGGUUUUCCCCUGAUUGUGCUAAGGGGGCCUGGAAGUUUGGACUGGGCAGAGCUCAACACAGCGUGGCAAAGUGGCUGUGGCUAGACUGCCUCUCUGGAUUCCUCGUCACUCAGCAGGGCAUCUCUGAGAGAAAUGCC, the self-cleavage was 1.28.

As to AACGUAGGUGGUUUUCCCCUGAUAGUGCUAAGGGGGCCUGGAAGUUUGGACUGGGCAGAGCUCGACACAGCGUGGCAAAGUGGCUGUGGCUAGACUGCCUCUCUGGAUUCCUCGUCACUCAGCAGGGCAUCUCUGAGAGAAAUGCC, the self-cleavage turned out to be 0.64. With AACGUAGGUGGUUUUCCCCUGAUAGUGCUAAGGGGGCCUGGAAGUUUGGACUGGGCAGAGCUCAACACAGCGAGGCAAAGUGGCUGUGGCUAGACUGCCUCUCUGGAUUCCUCGUCACUCAGCAGGGCAUCUCUGAGAGAAAUGCC, the self-cleavage was 1.67.

As to AACGUAGGUGGUUUUCCCCUGAUAGUGCUAAGGGGGCCUGGAAGUUUGGACUGGGCAGAGCUCAACACAGCGUGGCAAAGUGGCUGUGGCUAGACUGCCUCUCUGGAUUCCUCGUCACUCAGCAGGGCCUCUCUGAGAGAAAUGCC, the self-cleavage worked out at 2.51.

Take AACGUAGGUGGUUUUCCCCUGAUAGUGCUAAGGGGGCCUGGAAGUUUGGACUGGGCAGAGCUCAACACAGCGUGGCAAAGUGGCUGUGGCUAGACUGCCUCUCUGGAUUCCUCGUCACUCAGCAGGGCAUCUCUGAGAGAUAUGCC: the self-cleavage was 1.42.

On to AACGUAGGUGGGUUUCCCCUGAUAGUGCUAAGGGGGCCUGGAAGUUUGGACUGGGCAGAGCUCAACACAGCGUGGCAAAGUGGCUGUGGCUAGACUGCCUCUCUGGAUUCCUCGUCACUCAGCAGGGCAUCUCUGAGAGAAAUGCC, for which the self-cleavage turned out to be 0.97. Under AACGUAGGUGGUUUUCCCCUGAUAGUGCUAAGGGGGCCUGGAAGUUUGGACUGGGCAGAGCUCAACACAGCGUGGCAAAGUGGCUGUGGCCAGACUGCCUCUCUGGAUUCCUCGUCACUCAGCAGGGCAUCUCUGAGAGAAAUGCC stands 0.15; under AACGUAGGUGGUUUUCCCCUGAUAGUGCUAAGGGGGCCUGGAAGUUUGGACUGGGCAGAGCUCAACACAGCGUGGCAAAGUGGCUGUGGCAAGACUGCCUCUCUGGAUUCCUCGUCACUCAGCAGGGCAUCUCUGAGAGAAAUGCC, 1.27. As for AACGUAGGUGGUUUUCCCCAGAUAGUGCUAAGGGGGCCUGGAAGUUUGGACUGGGCAGAGCUCAACACAGCGUGGCAAAGUGGCUGUGGCUAGACUGCCUCUCUGGAUUCCUCGUCACUCAGCAGGGCAUCUCUGAGAGAAAUGCC, the self-cleavage came out at 0.81. Consider AACGUAGGUGGUCUUCCCCUGAUAGUGCUAAGGGGGCCUGGAAGUUUGGACUGGGCAGAGCUCAACACAGCGUGGCAAAGUGGCUGUGGCUAGACUGCCUCUCUGGAUUCCUCGUCACUCAGCAGGGCAUCUCUGAGAGAAAUGCC, for which the self-cleavage stood at 0.91.

On to AACGUAGGUGGUUUUCCCCUGAUAGUGCUAAGGGGGCCUGGAAGUUCGGACUGGGCAGAGCUCAACACAGCGUGGCAAAGUGGCUGUGGCUAGACUGCCUCUCUGGAUUCCUCGUCACUCAGCAGGGCAUCUCUGAGAGAAAUGCC, for which the self-cleavage worked out at 1.02. To AACGUAGGUGGUUUUCCCCUGAUAGUGCUAAGGGGGCCUGGAAGUUGGGACUGGGCAGAGCUCAACACAGCGUGGCAAAGUGGCUGUGGCUAGACUGCCUCUCUGGAUUCCUCGUCACUCAGCAGGGCAUCUCUGAGAGAAAUGCC belongs 1.53.

Turning to AACGUAGGUGGUUUUCCCCUGAUAGUGCUAAGGGGGCCUGGAAGUUUGGACUGGGCAGAGCUCAACACAGCGUGGCAAAGUGGCUGUGGCUAGACUGCCUCUCUGGAUUCCUCGUCUCUCAGCAGGGCAUCUCUGAGAGAAAUGCC, the self-cleavage came to 1.48. With AACGUAGGUGAUUUUCCCCUGAUAGUGCUAAGGGGGCCUGGAAGUUUGGACUGGGCAGAGCUCAACACAGCGUGGCAAAGUGGCUGUGGCUAGACUGCCUCUCUGGAUUCCUCGUCACUCAGCAGGGCAUCUCUGAGAGAAAUGCC, the self-cleavage was found to be 1.76.

As for AACGUAGGUGGUUUUCCCCUGAUAGUGCUAAGGGGGCCUGGAAGUUUGGACUGGGCAGAGUUCAACACAGCGUGGCAAAGUGGCUGUGGCUAGACUGCCUCUCUGGAUUCCUCGUCACUCAGCAGGGCAUCUCUGAGAGAAAUGCC, the self-cleavage was 0.08. For the variant AACGUAGGUGGUUUUCCCCUGAUAGUGCUAAGGGGGCCUGGAAGUUUGGACUGGGCAGAGCUCAACCCAGCGUGGCAAAGUGGCUGUGGCUAGACUGCCUCUCUGGAUUCCUCGUCACUCAGCAGGGCAUCUCUGAGAGAAAUGCC, the self-cleavage worked out at 0.3. Consider AACGUAGGUGGUUUUCCCCUGAUAGUGCUAAGGGGGCCUGGAAGUUUGGACUGGGCAGAGCUCAACACAGCGUGGCAAAGUGGUUGUGGCUAGACUGCCUCUCUGGAUUCCUCGUCACUCAGCAGGGCAUCUCUGAGAGAAAUGCC, for which the self-cleavage stood at 0.22. Turning to AACGUAGGUGGUUUUCCCCUGAUACUGCUAAGGGGGCCUGGAAGUUUGGACUGGGCAGAGCUCAACACAGCGUGGCAAAGUGGCUGUGGCUAGACUGCCUCUCUGGAUUCCUCGUCACUCAGCAGGGCAUCUCUGAGAGAAAUGCC, the self-cleavage is 1.2. To AACGUAGGUGGUUUUCCCCUGAUAGUGCUAAGGGGGCCUGGAAGUUUGGACUGGGCAGAGCUCAACACAGCGUGGCAAAGUGGCUGCGGCUAGACUGCCUCUCUGGAUUCCUCGUCACUCAGCAGGGCAUCUCUGAGAGAAAUGCC belongs 0.5; to AACGUAGGUGGUUUUCCCCUGAUAGUGCUAAGGGGGCCUGGGAGUUUGGACUGGGCAGAGCUCAACACAGCGUGGCAAAGUGGCUGUGGCUAGACUGCCUCUCUGGAUUCCUCGUCACUCAGCAGGGCAUCUCUGAGAGAAAUGCC, 1.35. As to AACGUAGGUGGUUUUCCCCUGAUAGUGCUAAGGGGGCCUGGAAGUUUGGACUGGGCAGAGCUCAACACAGCGUGGCAAUGUGGCUGUGGCUAGACUGCCUCUCUGGAUUCCUCGUCACUCAGCAGGGCAUCUCUGAGAGAAAUGCC, the self-cleavage worked out at 0.91. In the case of AACGUAGGUGGUUUUCCCCUGAUAGUGCUAAGGGGGCCUGGAAGUUUGGACUGGGCAGAGCUCAACACAGCGUGGCAAGGUGGCUGUGGCUAGACUGCCUCUCUGGAUUCCUCGUCACUCAGCAGGGCAUCUCUGAGAGAAAUGCC, the self-cleavage was 1.31. To AACGUAGGUGGUUUUCCCCUGAUAGUGCUAAGGGGGCCUGGAAGUGUGGACUGGGCAGAGCUCAACACAGCGUGGCAAAGUGGCUGUGGCUAGACUGCCUCUCUGGAUUCCUCGUCACUCAGCAGGGCAUCUCUGAGAGAAAUGCC belongs 0.96; to AACGUAGGUGGUUUUCCCCUGAUAGUGCUAAGGGGGCCUGGAAGUUUGGACUGGGCAGAGCUCAACACAGCGUGGCAAAGUGGCUGUGGCUAGACUGCCUCUCUGGAUUCCUCGUCACUCAGCAGGCCAUCUCUGAGAGAAAUGCC, 1.51; to AACGUAGGUGGUUUUCCCCUGAUAGUGCUAAGGGGGCCUGGAAGUUUGGACUGGGCAGAGCUCAACACAGCGUGGCAAAGUGGCUGUGGCUAGACUGCCUCUCUGGGUUCCUCGUCACUCAGCAGGGCAUCUCUGAGAGAAAUGCC, 1.67. To AACGUAGGUGGUUUUCCCCUGAUAGUGCUAAGGGGGCCUGGAAGUUUGGACCGGGCAGAGCUCAACACAGCGUGGCAAAGUGGCUGUGGCUAGACUGCCUCUCUGGAUUCCUCGUCACUCAGCAGGGCAUCUCUGAGAGAAAUGCC belongs 1.64; to AACGUAGGUGGUUUUCCCCUGAUAGUGCUAGGGGGGCCUGGAAGUUUGGACUGGGCAGAGCUCAACACAGCGUGGCAAAGUGGCUGUGGCUAGACUGCCUCUCUGGAUUCCUCGUCACUCAGCAGGGCAUCUCUGAGAGAAAUGCC, 1.26; to AACGUAGGUGGUUUUCCCCUGAUAGUGCUAAGGGGGCCUGGAAGUUUGGACUGGGCAGAGCUCAACACAGCGUGGCAAAGUGGCUGUGGCUAGACUGCCUCUCUGGAUUCCUCGUCACUCAGCAGGGCAUCUCUGAGGGAAAUGCC, 1.05. For AACGUAGGUGGUUUUCCCCUGAUAGUGCUAAGGGGGCCUGGAAGUUUGGACUGGGCAGAGCUCAACACAGCGUGGCAAAGUGGCUGUGGCUAGACUGCCUCUCUGGAUUCCUCGUCACUCAGCAGCGCAUCUCUGAGAGAAAUGCC, the self-cleavage was 1.06. AACGUAGGUGGUUUUCCCCUGAUAGCGCUAAGGGGGCCUGGAAGUUUGGACUGGGCAGAGCUCAACACAGCGUGGCAAAGUGGCUGUGGCUAGACUGCCUCUCUGGAUUCCUCGUCACUCAGCAGGGCAUCUCUGAGAGAAAUGCC: the self-cleavage was found to be 1.93.

Turning to AACGUAGGUGGUUUUCCCCUGAUAGUGCUAAGGGGGCCUGGAAGUUUGGGCUGGGCAGAGCUCAACACAGCGUGGCAAAGUGGCUGUGGCUAGACUGCCUCUCUGGAUUCCUCGUCACUCAGCAGGGCAUCUCUGAGAGAAAUGCC, the self-cleavage was determined as 0.75. Under AACGUAGGUGGUUUUCCCCUGAUAGUGCUAAGGGGGCCUGGAUGUUUGGACUGGGCAGAGCUCAACACAGCGUGGCAAAGUGGCUGUGGCUAGACUGCCUCUCUGGAUUCCUCGUCACUCAGCAGGGCAUCUCUGAGAGAAAUGCC stands 0.68. Under AACGUAGGUGGUUUUCCCCUGAUAGUGCUAAGGGGGCCUGGAAGUUUGGACUGGGCAGAGCUCAACACAGCGUGGCAAAGUGGCGGUGGCUAGACUGCCUCUCUGGAUUCCUCGUCACUCAGCAGGGCAUCUCUGAGAGAAAUGCC stands 0.12.
